Source: the Human Domainome abundance scans (Beltran et al. 2025)
± gives the uncertainty stated by the source.

B1: Ventral anterior homeobox 1, residues 102 to 157; numbered along this chain, Q5SQQ9 (parent)
chain: RTRTSFTAEQLYRLEMEFQRCQYVVGRERTELARQLNLSETQVKVWFQNRRTKQKK
B2: Intersectin-1, residues 909 to 971; numbered along this chain, Q15811 (parent)
chain: QGEKVEGLQAQALYPWRAKKDNHLNFNKNDVITVLEQQDMWWFGEVQGQKGWFPKSYVKLISG

Variants of: B1
Test: abundance fitness (aPCA) (normalised: wild type 0, dead -1); higher = more abundant; growth selection in yeast, the domain comes from the species named
Details: Homo sapiens

Row | Variant | abundance fitness
1 | K55A | 0.086 ± 0.1
2 | K55C | -0.091 ± 0.2
3 | K55D | 0.305 ± 0.17
4 | K55E | 0.238 ± 0.15
5 | K55F | -0.229 ± 0.21
6 | K55G | 0.043 ± 0.093
7 | K55H | -0.149 ± 0.26
8 | K55I | -0.238 ± 0.2
9 | K55L | 0.128 ± 0.11
10 | K55M | -0.288 ± 0.18
11 | K55N | 0.081 ± 0.18
12 | K55P | 0.061 ± 0.13
13 | K55Q | 0.29 ± 0.21
14 | K55R | -0.187 ± 0.1
15 | K55S | -0.072 ± 0.12
16 | K55V | 0.119 ± 0.1
17 | K55W | -0.105 ± 0.12

Row | Variant | abundance fitness
18 | K55Y | -0.199 ± 0.23
19 | K56A | -0.291 ± 0.3
20 | K56C | 0.148 ± 0.37
21 | K56E | 0.12 ± 0.33
22 | K56G | 0.324 ± 0.18
23 | K56H | -0.159 ± 0.27
24 | K56I | 0.003 ± 0.39
25 | K56L | -0.205 ± 0.24
26 | K56M | -0.17 ± 0.27
27 | K56N | 0.151 ± 0.34
28 | K56P | 0.143 ± 0.36
29 | K56Q | -0.167 ± 0.33
30 | K56R | -0.127 ± 0.22
31 | K56S | 0.135 ± 0.14
32 | K56V | 0.005 ± 0.22
33 | K56W | 0.078 ± 0.38
34 | K56Y | -0.039 ± 0.19

Variants of: B2
Test: as above
Details: Homo sapiens

Row | Variant | abundance fitness
35 | N22A | -0.118 ± 0.11
36 | S56M | -0.238 ± 0.12
37 | A18D | -0.109 ± 0.072
38 | V46R | -0.1 ± 0.082
39 | M40P | 0.025 ± 0.11
40 | L8P | -0.345 ± 0.2
41 | L35T | -0.327 ± 0.45
42 | K55R | 0.018 ± 0.3
43 | E36L | -0.094 ± 0.17
44 | W16G | -0.744 ± 0.12
45 | Y14C | -0.511 ± 0.14
46 | A10G | -0.212 ± 0.07
47 | G2S | -0.018 ± 0.085
48 | T33Y | -0.016 ± 0.29
49 | K50L | -0.383 ± 0.14
50 | F43E | -0.465 ± 0.12
51 | K50P | -0.242 ± 0.28
52 | K50S | -0.139 ± 0.11
53 | F53M | -0.543 ± 0.47
54 | L35S | -0.114 ± 0.19
55 | D39N | -0.215 ± 0.15
56 | D21T | -0.03 ± 0.1
57 | S62L | -0.084 ± 0.16

Row | Variant | abundance fitness
58 | R17S | -0.043 ± 0.11
59 | Q37E | -0.159 ± 0.29
60 | D21N | -0.265 ± 0.15
61 | G2P | -0.423 ± 0.19
62 | A12T | -0.841 ± 0.32
63 | W42P | -0.658 ± 0.14
64 | K19Q | 0.069 ± 0.082
65 | L24M | -0.611 ± 0.17
66 | K59C | -0.192 ± 0.2
67 | E45L | -0.076 ± 0.096
68 | K59G | -0.424 ± 0.11
69 | Q37F | -0.078 ± 0.46
70 | N22M | -0.4 ± 0.18
71 | K59L | -0.331 ± 0.14
72 | I32M | -0.446 ± 0.12
73 | L13C | -0.268 ± 0.28
74 | L13T | -0.233 ± 0.18
75 | V34T | -0.711 ± 0.22
76 | D21E | -0.096 ± 0.12
77 | I32H | -0.692 ± 0.14
78 | L35K | 0.168 ± 0.26
79 | V46I | -0.11 ± 0.11
80 | R17D | -0.163 ± 0.23

Row | Variant | abundance fitness
81 | N29Q | -0.041 ± 0.19
82 | D30H | -0.511 ± 0.11
83 | N25H | 0.009 ± 0.5
84 | K50N | 0.014 ± 0.16
85 | P15K | -0.14 ± 0.23
86 | G63S | -0.278 ± 0.15
87 | L8Q | 0.05 ± 0.13
88 | Q11K | -0.142 ± 0.12
89 | G48R | -0.224 ± 0.094
90 | V5S | -0.115 ± 0.2
91 | V5A | -0.008 ± 0.11
92 | Q38K | -0.173 ± 0.17
93 | W52G | -1.18 ± 0.39
94 | W41G | -0.78 ± 0.28
95 | K20S | -0.011 ± 0.039
96 | S62N | -0.151 ± 0.22
97 | V31Q | -0.102 ± 0.038
98 | L60P | -0.152 ± 0.12
99 | L35Q | -0.058 ± 0.24
100 | A12G | -0.404 ± 0.07
101 | W52S | -1.15 ± 0.41
102 | N25W | -0.462 ± 0.17
103 | E3T | -0.305 ± 0.26

Row | Variant | abundance fitness
104 | Q37W | -0.162 ± 0.16
105 | W41V | -0.319 ± 0.14
106 | Q49K | -0.483 ± 0.42
107 | F26R | -1.01 ± 0.22
108 | F43C | -0.563 ± 0.33
109 | E45V | -0.013 ± 0.1
110 | E36T | -0.149 ± 0.18
111 | T33D | 0.086 ± 0.15
112 | V34R | -0.776 ± 0.12
113 | S56Y | -0.225 ± 0.28
114 | Q9L | -0.133 ± 0.12
115 | K59D | -0.615 ± 0.28
116 | W42T | -0.527 ± 0.085
117 | V31M | 0.003 ± 0.043
118 | Q1K | -0.496 ± 0.11
119 | M40C | 0.084 ± 0.17
120 | L8T | -0.039 ± 0.18
121 | E3D | -0.021 ± 0.26
122 | K19N | -0.055 ± 0.057
123 | Q37C | -0.127 ± 0.17
124 | W52Q | -0.776 ± 0.46
125 | S62A | 0.062 ± 0.098
126 | K59Y | -0.378 ± 0.33

Row | Variant | abundance fitness
127 | S62P | -0.21 ± 0.13
128 | D30P | -0.759 ± 0.069
129 | V5P | -0.07 ± 0.21
130 | V58G | -0.881 ± 0.15
131 | W16I | 0.126 ± 0.2
132 | I32K | -0.965 ± 0.29
133 | V31W | -0.132 ± 0.041
134 | K59Q | -0.109 ± 0.17
135 | K19L | -0.045 ± 0.045
136 | Y57E | -0.243 ± 0.22
137 | L24D | -1.26 ± 0.4
138 | D39Y | -0.208 ± 0.27
139 | L35G | -0.033 ± 0.16
140 | P54G | -1.18 ± 0.41
141 | K50F | -0.208 ± 0.23
142 | K50V | -0.26 ± 0.12
143 | V58W | -0.87 ± 0.15
144 | K19C | -0.048 ± 0.055
145 | Q37M | 0.323 ± 0.2
146 | K55C | -0.16 ± 0.21
147 | Y57M | 0.008 ± 0.13
148 | Y14I | -0.058 ± 0.16
149 | Q9F | -0.159 ± 0.2

Row | Variant | abundance fitness
150 | D30K | -0.783 ± 0.086
151 | K20T | -0.079 ± 0.051
152 | D21S | -0.071 ± 0.05
153 | D21Y | -0.102 ± 0.07
154 | T33I | -0.213 ± 0.17
155 | L8W | -0.152 ± 0.11
156 | G7V | 0.076 ± 0.33
157 | D30S | -0.259 ± 0.037
158 | E45S | -0.039 ± 0.14
159 | K28T | 0.208 ± 0.24
160 | Q47C | -0.332 ± 0.14
161 | K50A | -0.183 ± 0.1
162 | Q38A | -0.463 ± 0.2
163 | A18E | -0.234 ± 0.12
164 | V5W | -0.106 ± 0.22
165 | H23V | -0.172 ± 0.1
166 | G2T | -0.051 ± 0.2
167 | L24I | -0.359 ± 0.27
